The values below come from patent US5831003A, “Peptides which bind to prothrombin and thrombin” (Bayer Corporation, priority 1996, dated 1998).

“And” between values parts separate entries of the source, which are not always exact repeats. Equal values may be shown once. Ends that are not written are not given here.

For assay [1], the target named is T1, thrombin (Homo sapiens, UniProt P00734).
T1 construct: from tissue
Briefly: Purification of α-thrombin from activated PTC eluate on QLWGSH-A-Totda-Toyopearl. It is filed as binding. The following applies: SDS-PAGE and western blot. The protocol:
Human pooled plasma was processed to PTC eluate by standard manufacturing techniques. In brief, DEAE-Sephadex resin was added to post cryoprecipitate eluant and loosely bound protein was washed away with a low salt buffer. Higher concentrations of NaCl eluted the fraction called PTC eluate which contains prothrombin and the vitamin K-dependent coagulation protease zymogens (factors VII, IX, X, protein C and protein S). A sample of PTC eluate was activated in the presence of 25% (w/w) sodium citrate for 4 days at room temperature. Approximately 1.0 ml of activated PTC eluate was injected onto the peptide resin QLWGSH-A-Totda-Toyopearl (FIG. 2 A). The column was washed with equilibration buffer (10 mM HEPES, pH 6.8, 1.0 mM EGTA and 0.1% v/v Tween-20) containing 1.0 M NaCl and then washed further with equilibration buffer containing 3.0 M NaCl. Acid treatment (2.5% acetic acid) was used to release protein from the peptide resin.
For orientation: In western blotting, separated proteins are transferred to a membrane and probed.

The target of assay [2] is T2, α-thrombin (Homo sapiens, UniProt P00734).
T2 construct: α-Thrombin is the active form of the plasma serine protease zymogen, prothrombin; purchased Enzyme Research Labs (South Bend, Ind.)
Briefly: Confirmatory binding assay in column chromatographic format, peptides synthesized on A-Totda-Toyopearl. Conditions: for dose dependence of thrombin in the acid eluant (in words): 50, 100 and 200 μg α-thrombin; for binding of thrombin to peptide resin (in words): summary of Table 2. The protocol: Confirmatory binding assays were performed in a column chromatographic format on a microbore HPLC using individual peptide sequences synthesized directly onto the Toyopearl 650 M Chelate resin which had been modified with Totda followed by an alanine residue (A-Totda-Toyopearl), at a final substitution density of 0.2 mmol/g resin. […] The endpoint was a dose-dependent increase in the acid eluate in the thrombin contactings, and quantification was by integration of the absorbance at 280 nm.

Assay [3] concerns the target T3, prothrombin (Homo sapiens, UniProt P00734).
T3 construct: from tissue
Briefly: Purification of prothrombin from PTC eluate on QLWGSH-A-Totda-Toyopearl. It is filed as binding. Conditions: SDS-PAGE and western blot; released with 1 M NaCl. The protocol:
Human pooled plasma was processed to PTC eluate by standard manufacturing procedures as indicated in Example 1. Approximately 1.0 ml of PTC eluate was injected onto the peptide resin QLWGSH-A-Totda-Toyopearl (FIG. 2 B). The column was washed with equilibration buffer containing 1.0 M NaCl and then containing 3.0 M NaCl. Acid treatment (2.5% acetic acid) was used to release protein from peptide resin.

Assay [4] has as its target T2, α-thrombin. Briefly: Purification of α-thrombin from activated PTC eluate on YFPGPYL-Totda-Toyopearl. Format: binding. As for the experimental part:
Human pooled plasma was processed to PTC eluate by standard manufacturing procedures as indicated in Example 1. A sample of the PTC eluate was activated in the presence of 50 mM CaCl2 for 6 days at 4° C. Approximately 1 ml of the activated PTC eluate, spiked with 300 μg α-thrombin, was injected onto the peptide resin YFPGPYL-Totda-Toyopearl (FIG. 6). The column was washed with equilibration buffer (10 mM HEPES, pH 6.5, 10 mM CaCl2, 500 mM NaCl, 0.1% (v/v) PEG-400) until the A280 returned to base-line. […] Acid treatment (2% acetic acid) was used as a cleaning step to remove protein still bound to the column.

Turning to “QLWGSH (not fully specified (C-terminus))”, in assay [1], the “binding and enrichment of thrombin from activated PTC eluate (in words)” value was “bound and enriched thrombin”. The “Absorbance, 280 nm 2% Acetic Acid” value in assay [2] (50 μg α-thrombin applied, integration of A280) is 1.54 and 1.39; in assay [2] (100 μg α-thrombin applied, integration of A280) it was 3.23 and 2.09; in assay [2] (200 μg α-thrombin applied, integration of A280) it was 6.92 and 3.71. In addition, the “dose dependence of thrombin in the acid eluant (in words)” value in assay [2] is listed as “dose dependent increase”. In assay [2], the “binding of thrombin to peptide resin (in words)” value was “bound thrombin”. Also, the “binding of prothrombin from unactivated PTC eluate (in words)” value in assay [3] is given as “prothrombin bound the peptide”.
“YFPGPYL (not fully specified (C-terminus))”: in assay [4] (quantitative scanning of SDS-PAGE, activated PTC eluate spiked with 300 μg α-thrombin), the “thrombin content of protein released by 1 mM sodium citrate pH 7.0” value was “at least 72%”. Moreover, in assay [4] (released by 1 mM sodium citrate pH 7.0), the “binding of thrombin from activated PTC eluate (in words)” value is on record as “thrombin bound”. Further, the “Absorbance, 280 nm 2% Acetic Acid” value was found to be 2.10 in assay [2] (50 μg α-thrombin applied in a solution containing 5 mg/ml hSA), 2.93 in assay [2] (100 μg α-thrombin applied in a solution containing 5 mg/ml hSA) and 4.72 in assay [2] (200 μg α-thrombin applied in a solution containing 5 mg/ml hSA). Besides, the “dose dependence of thrombin in the acid eluant (in words)” value in assay [2] is given as “dose dependent increase”. In addition, the “binding of thrombin to peptide resin (in words)” value in assay [2] is given as “bound thrombin”.
